Data published in patent publication US11833164B2, “Methods of treating Fabry disease in patients having a mutation in the GLA gene” (Amicus Therapeutics, Inc., priority 2019, dated 2023).

Test system: mutant form of α-Gal A expressed in HEK-293 cells
Assay: HEK assay (GLP HEK / Migalastat Amenability Assay): α-Gal A activity in lysates of transiently transfected HEK-293 cells incubated with or without 10 μM migalastat
Type: cell-based, human
Details: for Absolute increase (% WT): 10 μM migalastat versus baseline; for Relative increase: 10 μM migalastat α-Gal A activity relative to baseline; for 10 μM migalastat α-Gal A activity (% WT): 5 days; for 10 μM migalastat α-Gal A activity (% WT) / Baseline α-Gal A activity (% WT): percentage of baseline wild-type α-Gal A activity; for 10 μM migalastat α-Gal A activity (% WT) / Baseline α-Gal A activity (% WT) / Baseline α-Gal A activity / 10 μM migalastat α-Gal A activity: mean ± SEM; for Baseline α-Gal A activity (% WT): absence of migalastat; for Baseline α-Gal A activity / 10 μM migalastat α-Gal A activity: lysates of HEK-293 cells transfected with the mutant form; for Baseline α-Gal A activity: incubated 5 days in the absence of migalastat; for 10 μM migalastat α-Gal A activity: incubated 5 days with 10 μM migalastat
Procedure: Such mutations or variants are also referred to herein as “HEK assay amenable” mutations or variants.
The α-Gal A activity is expressed as the nmoles of free 4-MU released per milligram of protein per hour (nmol/mg/hr).
In Table 7, values for the mean±standard error of the mean (SEM) were calculated. nmol/mg/hr indicates “nmoles of free 4-MU released per mg of protein per hour”. WT indicates “wild-type”. NC indicates “not calculable”. N/A indicates “not applicable”.

B1: G104A (protein)
chain: MQLRNPELHLGCALALRFLALVSWDIPGARALDNGLARTPTMGWLHWERFMCNLDCQEEPDSCISEKLFMEMAELMVSEGWKDAGYEYLCIDDCWMAPQRDSEARLQADPQRFPHGIRQLANYVHSKGLKLGIYADVGNKTCAGFPGSFGYYDIDAQTFADWGVDLLKFDGCYCDSLENLADGYKHMSLALNRTGRSIVYSCEWPLYMWPFQKPNYTEIRQYCNHWRNFADIDDSWKSIKSILDWTSFNQERIVDVAGPGGWNDPDMLVIGNFGLSWNQQVTQMALWAIMAAPLFMSNDLRHISPQAKALLQDKDVIAINQDPLGKQGYQLRQGDNFEVWERPLSGLAWAVAMINRQEIGGPRSYTIAVASLGKGVACNPACFITQLLPVKRKLGFYEWTSRLRSHINPTGTVLLQLENTMQMSLKDLL
Absolute increase (% WT): 40.4 % WT
Relative increase: 3.7
10 μM migalastat α-Gal A activity (% WT): 55.2 ± 3 % WT
Baseline α-Gal A activity (% WT): 14.8 ± 1 % WT
Baseline α-Gal A activity: 5271 ± 397 nmol/mg/h
10 μM migalastat α-Gal A activity: 19670 ± 1202 nmol/mg/h

B2: G104S (protein)
chain: MQLRNPELHLGCALALRFLALVSWDIPGARALDNGLARTPTMGWLHWERFMCNLDCQEEPDSCISEKLFMEMAELMVSEGWKDAGYEYLCIDDCWMAPQRDSESRLQADPQRFPHGIRQLANYVHSKGLKLGIYADVGNKTCAGFPGSFGYYDIDAQTFADWGVDLLKFDGCYCDSLENLADGYKHMSLALNRTGRSIVYSCEWPLYMWPFQKPNYTEIRQYCNHWRNFADIDDSWKSIKSILDWTSFNQERIVDVAGPGGWNDPDMLVIGNFGLSWNQQVTQMALWAIMAAPLFMSNDLRHISPQAKALLQDKDVIAINQDPLGKQGYQLRQGDNFEVWERPLSGLAWAVAMINRQEIGGPRSYTIAVASLGKGVACNPACFITQLLPVKRKLGFYEWTSRLRSHINPTGTVLLQLENTMQMSLKDLL
Absolute increase (% WT): 52.0 % WT
Relative increase: 3.9
10 μM migalastat α-Gal A activity (% WT): 69.8 ± 5.8 % WT
Baseline α-Gal A activity (% WT): 17.9 ± 1.8 % WT
Baseline α-Gal A activity: 5720 ± 464 nmol/mg/h
10 μM migalastat α-Gal A activity: 22242 ± 1000 nmol/mg/h

B3: R105I (protein)
chain: MQLRNPELHLGCALALRFLALVSWDIPGARALDNGLARTPTMGWLHWERFMCNLDCQEEPDSCISEKLFMEMAELMVSEGWKDAGYEYLCIDDCWMAPQRDSEGILQADPQRFPHGIRQLANYVHSKGLKLGIYADVGNKTCAGFPGSFGYYDIDAQTFADWGVDLLKFDGCYCDSLENLADGYKHMSLALNRTGRSIVYSCEWPLYMWPFQKPNYTEIRQYCNHWRNFADIDDSWKSIKSILDWTSFNQERIVDVAGPGGWNDPDMLVIGNFGLSWNQQVTQMALWAIMAAPLFMSNDLRHISPQAKALLQDKDVIAINQDPLGKQGYQLRQGDNFEVWERPLSGLAWAVAMINRQEIGGPRSYTIAVASLGKGVACNPACFITQLLPVKRKLGFYEWTSRLRSHINPTGTVLLQLENTMQMSLKDLL
Absolute increase (% WT): 8.2 % WT
Relative increase: 1.3
10 μM migalastat α-Gal A activity (% WT): 41.6 ± 3.1 % WT
Baseline α-Gal A activity (% WT): 33.4 ± 2.2 % WT
Baseline α-Gal A activity: 9696 ± 798 nmol/mg/h
10 μM migalastat α-Gal A activity: 12128 ± 1157 nmol/mg/h

B4: G104D (protein)
chain: MQLRNPELHLGCALALRFLALVSWDIPGARALDNGLARTPTMGWLHWERFMCNLDCQEEPDSCISEKLFMEMAELMVSEGWKDAGYEYLCIDDCWMAPQRDSEDRLQADPQRFPHGIRQLANYVHSKGLKLGIYADVGNKTCAGFPGSFGYYDIDAQTFADWGVDLLKFDGCYCDSLENLADGYKHMSLALNRTGRSIVYSCEWPLYMWPFQKPNYTEIRQYCNHWRNFADIDDSWKSIKSILDWTSFNQERIVDVAGPGGWNDPDMLVIGNFGLSWNQQVTQMALWAIMAAPLFMSNDLRHISPQAKALLQDKDVIAINQDPLGKQGYQLRQGDNFEVWERPLSGLAWAVAMINRQEIGGPRSYTIAVASLGKGVACNPACFITQLLPVKRKLGFYEWTSRLRSHINPTGTVLLQLENTMQMSLKDLL
Absolute increase (% WT): 30.5 % WT
Relative increase: 1.8
10 μM migalastat α-Gal A activity (% WT): 69.8 ± 4.7 % WT
Baseline α-Gal A activity (% WT): 39.3 ± 2.6 % WT
Baseline α-Gal A activity: 14123 ± 1096 nmol/mg/h
10 μM migalastat α-Gal A activity: 24797 ± 1771 nmol/mg/h

B5: R105K (protein)
chain: MQLRNPELHLGCALALRFLALVSWDIPGARALDNGLARTPTMGWLHWERFMCNLDCQEEPDSCISEKLFMEMAELMVSEGWKDAGYEYLCIDDCWMAPQRDSEGKLQADPQRFPHGIRQLANYVHSKGLKLGIYADVGNKTCAGFPGSFGYYDIDAQTFADWGVDLLKFDGCYCDSLENLADGYKHMSLALNRTGRSIVYSCEWPLYMWPFQKPNYTEIRQYCNHWRNFADIDDSWKSIKSILDWTSFNQERIVDVAGPGGWNDPDMLVIGNFGLSWNQQVTQMALWAIMAAPLFMSNDLRHISPQAKALLQDKDVIAINQDPLGKQGYQLRQGDNFEVWERPLSGLAWAVAMINRQEIGGPRSYTIAVASLGKGVACNPACFITQLLPVKRKLGFYEWTSRLRSHINPTGTVLLQLENTMQMSLKDLL
Absolute increase (% WT): 20.5 % WT
Relative increase: 1.2
10 μM migalastat α-Gal A activity (% WT): 96.7 ± 5.2 % WT
Baseline α-Gal A activity (% WT): 76.2 ± 2.9 % WT
Baseline α-Gal A activity: 25495 ± 1793 nmol/mg/h
10 μM migalastat α-Gal A activity: 31647 ± 2251 nmol/mg/h

B6: L106I (protein)
chain: MQLRNPELHLGCALALRFLALVSWDIPGARALDNGLARTPTMGWLHWERFMCNLDCQEEPDSCISEKLFMEMAELMVSEGWKDAGYEYLCIDDCWMAPQRDSEGRIQADPQRFPHGIRQLANYVHSKGLKLGIYADVGNKTCAGFPGSFGYYDIDAQTFADWGVDLLKFDGCYCDSLENLADGYKHMSLALNRTGRSIVYSCEWPLYMWPFQKPNYTEIRQYCNHWRNFADIDDSWKSIKSILDWTSFNQERIVDVAGPGGWNDPDMLVIGNFGLSWNQQVTQMALWAIMAAPLFMSNDLRHISPQAKALLQDKDVIAINQDPLGKQGYQLRQGDNFEVWERPLSGLAWAVAMINRQEIGGPRSYTIAVASLGKGVACNPACFITQLLPVKRKLGFYEWTSRLRSHINPTGTVLLQLENTMQMSLKDLL
Absolute increase (% WT): 23.6 % WT
Relative increase: 1.5
10 μM migalastat α-Gal A activity (% WT): 70 ± 4.7 % WT
Baseline α-Gal A activity (% WT): 46.4 ± 2.7 % WT
Baseline α-Gal A activity: 13485 ± 1014 nmol/mg/h
10 μM migalastat α-Gal A activity: 20120 ± 1416 nmol/mg/h

B7: R105T (protein)
chain: MQLRNPELHLGCALALRFLALVSWDIPGARALDNGLARTPTMGWLHWERFMCNLDCQEEPDSCISEKLFMEMAELMVSEGWKDAGYEYLCIDDCWMAPQRDSEGTLQADPQRFPHGIRQLANYVHSKGLKLGIYADVGNKTCAGFPGSFGYYDIDAQTFADWGVDLLKFDGCYCDSLENLADGYKHMSLALNRTGRSIVYSCEWPLYMWPFQKPNYTEIRQYCNHWRNFADIDDSWKSIKSILDWTSFNQERIVDVAGPGGWNDPDMLVIGNFGLSWNQQVTQMALWAIMAAPLFMSNDLRHISPQAKALLQDKDVIAINQDPLGKQGYQLRQGDNFEVWERPLSGLAWAVAMINRQEIGGPRSYTIAVASLGKGVACNPACFITQLLPVKRKLGFYEWTSRLRSHINPTGTVLLQLENTMQMSLKDLL
Absolute increase (% WT): 15.6 % WT
Relative increase: 1.4
10 μM migalastat α-Gal A activity (% WT): 59.6 ± 3.9 % WT
Baseline α-Gal A activity (% WT): 44 ± 2.2 % WT
Baseline α-Gal A activity: 12553 ± 603 nmol/mg/h
10 μM migalastat α-Gal A activity: 17062 ± 1134 nmol/mg/h

B8: R105G (protein)
chain: MQLRNPELHLGCALALRFLALVSWDIPGARALDNGLARTPTMGWLHWERFMCNLDCQEEPDSCISEKLFMEMAELMVSEGWKDAGYEYLCIDDCWMAPQRDSEGGLQADPQRFPHGIRQLANYVHSKGLKLGIYADVGNKTCAGFPGSFGYYDIDAQTFADWGVDLLKFDGCYCDSLENLADGYKHMSLALNRTGRSIVYSCEWPLYMWPFQKPNYTEIRQYCNHWRNFADIDDSWKSIKSILDWTSFNQERIVDVAGPGGWNDPDMLVIGNFGLSWNQQVTQMALWAIMAAPLFMSNDLRHISPQAKALLQDKDVIAINQDPLGKQGYQLRQGDNFEVWERPLSGLAWAVAMINRQEIGGPRSYTIAVASLGKGVACNPACFITQLLPVKRKLGFYEWTSRLRSHINPTGTVLLQLENTMQMSLKDLL
Absolute increase (% WT): 15.3 % WT
Relative increase: 1.4
10 μM migalastat α-Gal A activity (% WT): 53.3 ± 3.5 % WT
Baseline α-Gal A activity (% WT): 38 ± 2.1 % WT
Baseline α-Gal A activity: 16513 ± 681 nmol/mg/h
10 μM migalastat α-Gal A activity: 22993 ± 1042 nmol/mg/h

B9: L106H (protein)
chain: MQLRNPELHLGCALALRFLALVSWDIPGARALDNGLARTPTMGWLHWERFMCNLDCQEEPDSCISEKLFMEMAELMVSEGWKDAGYEYLCIDDCWMAPQRDSEGRHQADPQRFPHGIRQLANYVHSKGLKLGIYADVGNKTCAGFPGSFGYYDIDAQTFADWGVDLLKFDGCYCDSLENLADGYKHMSLALNRTGRSIVYSCEWPLYMWPFQKPNYTEIRQYCNHWRNFADIDDSWKSIKSILDWTSFNQERIVDVAGPGGWNDPDMLVIGNFGLSWNQQVTQMALWAIMAAPLFMSNDLRHISPQAKALLQDKDVIAINQDPLGKQGYQLRQGDNFEVWERPLSGLAWAVAMINRQEIGGPRSYTIAVASLGKGVACNPACFITQLLPVKRKLGFYEWTSRLRSHINPTGTVLLQLENTMQMSLKDLL
Absolute increase (% WT): 7.3 % WT
Relative increase: 3.5
10 μM migalastat α-Gal A activity (% WT): 10.2 ± 1.1 % WT
Baseline α-Gal A activity (% WT): 3 ± 0.2 % WT
Baseline α-Gal A activity: 856 ± 58 nmol/mg/h
10 μM migalastat α-Gal A activity: 3009 ± 399 nmol/mg/h
